The target in assay [1] is T1, Human IL-18Rα ectodomain (amino acids 19-329), biotinylated (human, UniProt Q13478 19-329, biotin on the AviTag (BirA ligase)).
T1 construct: range 19-329; Secreted from insect cells (gp67 signal peptide removed); also called hIL-18Rα; hIL18Rα
T1 sequence: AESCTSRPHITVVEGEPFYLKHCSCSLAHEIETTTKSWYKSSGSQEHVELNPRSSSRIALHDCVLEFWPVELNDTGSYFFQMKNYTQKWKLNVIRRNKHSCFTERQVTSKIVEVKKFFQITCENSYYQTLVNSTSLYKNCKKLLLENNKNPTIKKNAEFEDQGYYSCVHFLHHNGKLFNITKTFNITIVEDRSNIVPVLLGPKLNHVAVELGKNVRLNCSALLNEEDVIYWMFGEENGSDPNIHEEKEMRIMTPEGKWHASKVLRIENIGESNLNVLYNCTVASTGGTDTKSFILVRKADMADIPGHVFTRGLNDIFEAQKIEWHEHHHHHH
Description: SPR.

Assay [2] deals with T2, IL-18 receptor (IL-18Rα / IL-18Rβ heterodimer) on HEK-Blue IL-18 reporter cells (UniProt Q13478 19-541; O95256 20-599, limits assumed).
T2 sequence (looked up) 1: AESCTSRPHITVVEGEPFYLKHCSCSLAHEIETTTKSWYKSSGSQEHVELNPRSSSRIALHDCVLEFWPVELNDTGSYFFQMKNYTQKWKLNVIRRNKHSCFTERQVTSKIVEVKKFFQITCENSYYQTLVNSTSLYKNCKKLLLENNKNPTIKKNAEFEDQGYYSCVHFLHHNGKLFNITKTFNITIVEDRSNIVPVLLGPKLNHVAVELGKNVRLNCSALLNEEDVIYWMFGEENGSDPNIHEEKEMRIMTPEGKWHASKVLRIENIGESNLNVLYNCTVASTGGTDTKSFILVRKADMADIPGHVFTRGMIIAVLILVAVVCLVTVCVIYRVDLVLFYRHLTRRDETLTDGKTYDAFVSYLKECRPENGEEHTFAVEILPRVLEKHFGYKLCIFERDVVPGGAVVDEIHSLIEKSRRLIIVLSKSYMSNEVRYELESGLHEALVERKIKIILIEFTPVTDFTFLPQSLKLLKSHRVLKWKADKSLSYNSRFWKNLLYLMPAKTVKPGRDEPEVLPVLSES
T2 sequence (looked up) 2: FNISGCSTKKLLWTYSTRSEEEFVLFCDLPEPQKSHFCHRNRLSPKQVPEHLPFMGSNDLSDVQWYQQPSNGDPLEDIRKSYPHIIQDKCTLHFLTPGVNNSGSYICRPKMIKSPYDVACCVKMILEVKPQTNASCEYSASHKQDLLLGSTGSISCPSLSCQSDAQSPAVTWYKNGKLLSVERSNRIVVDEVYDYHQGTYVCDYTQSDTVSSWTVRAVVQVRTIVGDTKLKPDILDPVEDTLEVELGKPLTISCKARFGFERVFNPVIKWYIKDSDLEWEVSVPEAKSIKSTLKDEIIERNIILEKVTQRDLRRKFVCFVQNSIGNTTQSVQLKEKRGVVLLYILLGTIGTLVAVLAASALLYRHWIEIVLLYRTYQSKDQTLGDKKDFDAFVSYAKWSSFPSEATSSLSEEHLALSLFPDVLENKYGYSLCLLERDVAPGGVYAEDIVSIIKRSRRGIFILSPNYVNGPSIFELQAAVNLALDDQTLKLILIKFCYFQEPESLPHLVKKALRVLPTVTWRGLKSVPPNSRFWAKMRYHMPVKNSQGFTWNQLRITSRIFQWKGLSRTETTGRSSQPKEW
Briefly: cell-based or functional assay.

Assay [3] addresses T1, Human IL-18Rα ectodomain (amino acids …). Description: SPR, apparent KD, first value of the cell; Exp 2. The procedure: (§1) Surface Plasmon Resonance (SPR) was used to perform biophysical affinity measurements of second generation DR-IL-18 variants (binding to IL-18R vs IL-18BP). Experiments were conducted using a Biacore T100 instrument and carried out at 25° C. Biotinylated IL-18Rα or IL-18BP were immobilized onto a Biacore biotin capture chip (Series S CAP sensor chip, GE Healthcare) to yield an Rmax of ˜50 RU (IL-18Rα) or ˜10 RU (IL-18BP). Measurements were made with serial dilutions of the IL-18 variants in HEPES buffered Saline-P+ buffer (10 mM HEPES pH 7.4, 150 mM NaCl, 0.005% surfactant P20). The surface was regenerated by three 60-sec injections of regeneration buffer (3/4 (v/v) 8M guanidine hydrochloride with ¼ (v/v) 1M sodium hydroxide). Experiments were performed in multiple channels simultaneously for increased observations. All data were analyzed with the Biacore T100 evaluation software version 2.0 with a 1:1 Langmuir binding model.

The target is the same in assay [4]. Briefly: SPR, apparent KD, second value of the cell; Exp 1. The procedure: as §1
For assay [5] the target is unchanged. Briefly: SPR (Biacore T100), hIL-18Rα as surface ligand; Exp 1. The procedure: as §1
Assay [6] shares this target. Briefly: SPR (Biacore T100), hIL-18Rα as surface ligand; Exp 2. The procedure: as §1
The target is the same in assay [7]. Description: SPR (Biacore T100), hIL-18Rα as surface ligand, 1:1 Langmuir. The procedure: as §1
Assay [8] has the same target. Description: on-yeast binding isotherm (flow cytometry), drawn summary table, IL18Rα (KD). The procedure: Individual colonies of IL-18 yeast were grown overnight at 30° C. in SDCAA liquid media and induced in SGCAA liquid media for 1 day at 20° C. IL-18 display levels on yeast were verified by flow cytometry using an anti-cMyc tag antibody (anti-myc-PE; Cell Signaling Technologies). Receptor staining with biotinylated IL-18Rα (with or without IL-18R β) or biotinylated IL-18BP was performed in PBS supplemented with 0.5% BSA and 2 mM EDTA (PBE) on ice. All analysis was performed on a Sony SA3800 flow cytometer.

In assay [9] the target is T3, Human IL-18BP (amino acids 31-194), biotinylated (human, UniProt O95998 31-194, biotin on the AviTag (BirA ligase) where used biotinylated).
T3 construct: Soluble decoy receptor; also called hIL-18BP; recombinant IL-18BP
T3 sequence: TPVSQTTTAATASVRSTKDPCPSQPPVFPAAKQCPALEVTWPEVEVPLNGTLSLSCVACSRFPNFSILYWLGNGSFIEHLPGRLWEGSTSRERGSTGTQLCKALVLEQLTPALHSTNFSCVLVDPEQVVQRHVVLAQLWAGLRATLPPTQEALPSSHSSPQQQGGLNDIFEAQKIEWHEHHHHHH
Description: SPR; KD(IL-18BP)/KD(IL-18Rα) normalized to WT IL-18; SPR; ratio from the bound KD BP >10,000 nM. The procedure:
as §1

Assay [10] addresses T3, Human IL-18BP (amino acids 31-194), …. Briefly: on-yeast binding isotherms; 20 µM used for NBD; printed without '>'; yeast-displayed variant; ratio computed with 20 µM put in for NBD.
Assay [11] has the same target. Description: on-yeast binding isotherms; KD ratio relative to WT IL-18; yeast-displayed variant; ratio normalized to WT, from the 20 µM placeholder.
The target in assay [12] is T1, Human IL-18Rα ectodomain (amino acids …). Briefly: SPR, apparent KD, first value of the cell. As for the experimental part: as §1
For assay [13] the target is unchanged. Briefly: SPR, apparent KD, second value of the cell. The procedure: as §1
The target of assay [14] is T3, Human IL-18BP (amino acids 31-194), …. Briefly: SPR; KD(IL-18BP)/KD(IL-18Rα) normalized to WT IL-18; SPR; normalized ratio, a bound from KD BP >10,000 nM. As for the experimental part: as §1

B1: SEQ ID NO: 89 (second generation human DR-IL-18 variant 6-12) (ligand)
chain: YFGKLESKLSVIRNLNDQVLFIDQGNRPLFEDMTDSDCRDNAPRTIFIISKYSDSLARGLAVTISVKCEKISTLSCENKIISFKEMNPPDNIKDTKSDIIFFQRDVPGHSRKMQFESSSYEGYFLACEKERDLFKLILKKEDELGDRSIMFTVQNED
notes: Engineered variant; recombinant soluble analyte in SPR and cell assays
With B1, the Kd in [1] is 2.2 nM; in [3], 1.8 nM; in assay [4], 2.2 nM; in assay [5], 2.24 nM; in [6] it was 1.84 nM; in [8], 17 nM. In addition, the “EC50-#1 (M), HEK-Blue reporter” value in [2] was determined as 1.43e-10 M. Besides, the “EC50-#2 (M), HEK-Blue reporter” value in assay [2] worked out at 5.44e-11 M. For the same molecule, the koff in [7] was 0.00091 s⁻¹. The same molecule displayed a kon in assay [7] of 495000 M⁻¹ s⁻¹. Besides, the “IL-18 BP:Rα Dissociation Constant Ratio” value in assay [9] was above 9.32e+06. Further, in [10], the “KD ratio IL-18BP/IL-18Rα” value was above 1200. Also, the “Dissociation Constant Ratio normalized to WT IL-18” value in assay [11] is above 17000.

B2: SEQ ID NO: 91 (second generation human DR-IL-18 variant 6-29) (ligand)
chain: YFGKLESKLSVIRNLNDQVLFIDQGNRPLFEDMTDSDCRDNAPRTIFIISKYSDSRARGLAVTISVKCEKISTLSCENKIISFKEMNPPDNIKDTKSDIIFFQRNVPGHGRKMQFESSSYEGYFLACEKERDLFKLILKKEDELGDRSIMFTVQNED
notes: as for B1
In the case of B2, the Kd was 2.7 nM in assay [1]; 2.1 nM in assay [12]; 2.7 nM in assay [13]; 2.65 nM in assay [5]; 2.07 nM in assay [6]; 37 nM in assay [8]. For the same molecule, the koff in assay [7] came to 0.00119 s⁻¹. In assay [7], the kon is 575000 M⁻¹ s⁻¹. Also, in assay [14], the “IL-18 BP:Rα Dissociation Constant Ratio” value was above 7.59e+06.

The values are drawn from US20230277625A1 (SIMCHA IL 18, published 2023).
